# Changes are numbered by the printed parent chain. Numbers in names are those of the source.
# B1: Novosphingobium aromaticivorans LigE (Saro_2405), wild type (Novosphingobium aromaticivorans DSM 12444) (protein)
# chain: MAANNTITFYDLALSTGATISPFVWATKYALKHKGFDLDVVPGGFTGILERTGGKTERLPAIVDDGEFVLDSWGIVEYLDAKYPDRPVLIPHESVAATLKALDNWFWNAAVGPWMFCFCQDYRDLSLPQDHEYVTHSREKMLGRKLEEVQAGREERLPKISAALEPLRAALAQHQWLGGSSPNYADYRIMGGILFTASVCKTPVLANDDPLRDWIERCLDLYGGLGRHPGLFPLFGLEQREGDPDLFNRAAGQGGIYKRNTGPESTRAETQRITEGMKK
# notes: E. coli expressed
# B2: Novosphingobium aromaticivorans BaeA, wild type, heterodimer of Saro_2872 (SEQ ID NO:40) and Saro_2873 (SEQ ID NO:42) (Novosphingobium aromaticivorans DSM … (protein)
# chain 1: MSALLYHGEPNGASLTVLAALAETGLDIECRRIDLLAGERHSLPGIVDPVALDLSIEGEGPVLVIDGEAMTESVFLAQYLDEAAGGVGLQPTDAYARWEMMMWCRQITERLSPAAALLGNLATSQSAIAAIPAEDFAILAARIVSDDLRERWQALNDDAVNAAQVADSETKVAAAVDRCEKQLGDGREWLMGTFSIADLVTYSWLAGMEPLRPAAFADAPLVKAWLARTAARPCVQAALARATISEPLRAWAPGPEINRWG
# chain 2: MDEVSLYHWEPNANSGKPMLALMEKGVPFSSHYIDMLQFDQHKPEYLAINPQGTIPAMTHNGQVLTESTAIMEYVNDRFDGPDLMPADAQDRWRVRWWMKFMDQWLGPSFSMIGWSVFVGPMVRQRDPAELAAAIDRIPLPERRTAWRKAINGDFSESEMAESRRRVGLGIAKLEEELGKRPYVGSNQYSLADINIFNSTYSLPISQPDLAGKDRTPNIMRWLKRVYTREAVKKTWAMGKTDLAHRYGLIMAEIEG
# notes: His8 tag removed by TEV, SAIAG left on the N-terminus
# B3: Novosphingobium aromaticivorans BaeA (Saro_2872/Saro_2873 heterodimer, SEQ ID NO:40/SEQ ID NO:42) variant 2:S14A (Ser14 of Saro_2872 to Ala) (Novosphingobium … (protein)
# chain 1: B2 chain 1 with S14A
# chain 2: B2 chain 2
# notes: His8 tag on Saro_2872 removed by TEV, SAIAG left on N-terminus
# B4: Novosphingobium aromaticivorans BaeA (Saro_2872/Saro_2873 heterodimer, SEQ ID NO:40/SEQ ID NO:42) variant 3:S15A (Ser15 of Saro_2873 to Ala) (Novosphingobium … (protein)
# chain 1: B2 chain 1
# chain 2: B2 chain 2 with S15A
# notes: His8 tag on Saro_2873 removed by TEV
# B5: SYK6GSTNu: Nu-class GST from Sphingobium sp. SYK-6 encoded by SLG_04120, SEQ ID NO:22 (protein)
# chain: MADSDPSMNQPTGYVPPKVWTWDKENGGQFSNINAPTAGARQDVTLPVGEHPIQLYSLGTPNGQKVTIMLEELLAAGFDAEYDAWLIKIYTGEQFGSDFVAINPNSKIPAMMDHGLDPPLRLFESGSMLVYLAEKFGAFLPTEIRKRTETFNWLMWQMGSAPFVGGGFGHFYAYAPFKIEYAIDRYAMETKRQLDVLDKNLADREFMIGDEITIADFAIFPWYGSIMRGGYNAQEFLSTHEYRNVDRWVTQLSERTGVKRGLLVNSAGRPGGGIAERHSAADLDASIKAAEQEAAKTEA
# modifications: Sphingobium sp. SYK-6
# B6: BaeA (3:N14A): BaeA variant with Asn14 of Saro_2873 mutated into Ala (protein)
# chain: B2 chain 2 with N14A
# B7: Saro_2872: polypeptide from Novosphingobium aromaticivorans, SEQ ID NO:40; subunit of BaeA (protein)
# chain: B2 chain 1
# modifications: Novosphingobium aromaticivorans
# notes: subunit of BaeA
# Legend:
# [1] = substrate: COc1cc(C(=O)[C@@H](CO)Oc2ccccc2OC)ccc1O; test: Kinetics of the enzymatic cleavage of β(R)-MPHPV by LigE; type: biochemical, Novosphingobium aromaticivorans; conditions: other: β(R)-MPHPV into GS-HPV, 70 nM enzyme (monomer), 5 mM GSH, pH 8.0, 25° C.
# From the text: Enzyme purifications. Genes Saro_2595, E. coli yghU, E. coli yfcG, and SLG_04120 from Sphingobium sp. SYK-6 (codon-optimized for expression in E. coli) were individually cloned into plasmid pVP302K (Gall and Ralph et al. 2014) so that transcripts from the plasmids would be translated into proteins containing a His8-tag connected to the N-terminus via a tobacco etch virus (TEV) protease recognition site. Recombinant proteins were expressed in E. coli B834 (Wood 1966, Doherty et al. 1995) containing plasmid pRARE2 (Novagen, Madison, Wis.) grown for ˜24 h at 27° C. in ZYM-5052 Autoinduction Medium (Studier 2005) containing kanamycin and chloramphenicol. Recombinant proteins were purified essentially as described previously (Gall and Kim et al. 2014); see below for modifications to the procedure. After removal of His8-tags using TEV protease, recombinant proteins retained a Ser-Ala-Ile-Ala-Gly-peptide on their N-termini, derived from the linker between the protein and the TEV protease recognition site. Recombinant LigE and LigF1 from N. aromaticivorans were purified as previously described (Gall and Ralph et al. 2014).
# (§1) Kinetics of the enzymatic cleavage of β(R)-MPHPV. Various concentrations of racemic MPHPV (equal amounts of the β(S)- and β(R)-stereoisomers) were combined with 5 mM GSH in RB. At time zero, 100 μL of a given enzyme in RB+5 mM GSH was combined with 1000 μL of the racemic MPHPV/GSH sample at 25° C. (both samples were equilibrated to 25° C. before mixing). […] At specified time points, 200 μL of a reaction was removed and combined with 40 μL of 1 M HCl (Acros Organics) to stop the reaction before HPLC analysis to quantify GS-HPV formed. […]
# (§2) HPLC analysis. Analysis and quantification of aromatic compounds were performed using an Ultra AQ C18 5 μm column (Restek) attached to a System Gold HPLC (Beckman Coulter) with running buffers and methods described in Example 1. The eluent was analyzed for light absorbance between 191 and 600 nm, and absorbances at 280 nm were used for quantification of aromatic metabolites by comparing peak areas to those of standards.
# [2] = substrate: COc1cc(C(=O)[C@@H](CO)Oc2ccccc2OC)ccc1O; test: Kinetics of the enzymatic cleavage of β(R)-MPHPV by BaeA; type: biochemical, Novosphingobium aromaticivorans; conditions: other: β(R)-MPHPV into GS-HPV, 18 nM dimeric enzyme, 5 mM GSH, pH 8.0, 25° C.
# Description: (§3) Expression and purification of recombinant enzymes. Recombinant proteins were expressed using the plasmids described above in E. coli B834 containing plasmid pRARE2 (Novagen) grown for ˜25 hours at 25° C. in ZYM-5052 Autoinduction Medium containing kanamycin and chloramphenicol. Recombinant proteins were purified using a Ni^2+-NTA column as described in Example 1 above, except using gravity-flow columns instead of an FPLC system. After removal of His8-tags using Tev protease, recombinant proteins retained a Ser-Ala-Ile-Ala-Gly-peptide on their N-termini, derived from the linker between the protein and the Tev protease recognition site. Recombinant LigF1 was purified as previously described (Gall and Ralph et al. 2014).
# Kinetics of the enzymatic cleavage of β(R)-MPHPV. Various concentrations of racemic MPHPV (equal amounts of the β(S)- and β(R)-stereoisomers) were combined with 5 mM GSH in RB. At time zero, 100 μL of a given enzyme in RB+5 mM GSH was combined with 1000 μL of the racemic MPHPV/GSH sample at 25° C. (both samples were equilibrated to 25° C. before mixing). Final concentrations of β(R)-MPHPV in each reaction were 0.0045, 0.010, 0.017, 0.068, or 0.13 mM. Final enzyme concentrations were 18 nM BaeA, 23 nM BaeA (2:S14A), 22 nM BaeA (3:S15A), 24 nM BaeA (2:S14A/3:S15A), 98 nM BaeA (3N14A), or 70 nM LigE (Saro_2405) (all concentrations are for the dimeric enzyme, except for LigE, which is the concentration of the monomer). At specified time points, 200 μL of a reaction was removed and combined with 40 μL of 1 M HCl (Acros Organics) to stop the reaction before HPLC analysis to quantify GS-HPV formed. […]
# as §2
# [3] = substrate: COc1cc(C(=O)[C@@H](CO)Oc2ccccc2OC)ccc1O; test: Kinetics of the enzymatic cleavage of β(R)-MPHPV by BaeA (2:S14A); type: biochemical, Novosphingobium aromaticivorans; conditions: other: β(R)-MPHPV into GS-HPV, 23 nM dimeric enzyme, 5 mM GSH, pH 8.0, 25° C.
# From the text: (§4) To generate mutant 2:S14A, pVP302K/2873-H2872 was amplified by kinase phosphorylated primers “Saro2872-S14A_R” and “Saro2872-S14A_F”. To generate mutant 3:S15A, pVP302K/H2873-2872 was amplified by kinase phosphorylated primers “Saro2873-S15A_R” and “Saro2873-S15A_F”. To generate mutant 3:N14A, pVP302K/2873-H2872 was amplified by kinase phosphorylated primers “Saro2873-S15A_R” and “Saro2873-N14A_F”. These linear fragments were separately circularized using T4 DNA ligase to generate plasmids pVP302K/2873-H2872(S14A), pVP302K/H2873(S15A)-2872, and pVP302K/2873(N14A)-H2872, respectively.
# as §3
# as §1, with “RB.” for “RB. At time zero, 100 μL of a given enzyme in RB+5 mM GSH was combined with 1000 μL of the racemic MPHPV/GSH sample at 25° C. (both samples were equilibrated to 25° C. before mixing).”
# as §2
# [4] = substrate: COc1cc(C(=O)[C@@H](CO)Oc2ccccc2OC)ccc1O; test: Kinetics of the enzymatic cleavage of β(R)-MPHPV by BaeA (3:S15A); type: biochemical, Novosphingobium aromaticivorans; conditions: other: β(R)-MPHPV into GS-HPV, 22 nM dimeric enzyme, 5 mM GSH, pH 8.0, 25° C.
# From the text: as §4, §3
# as §1, with “RB.” for “RB. At time zero, 100 μL of a given enzyme in RB+5 mM GSH was combined with 1000 μL of the racemic MPHPV/GSH sample at 25° C. (both samples were equilibrated to 25° C. before mixing).”
# as §2
# [5] = Kinetics analysis of GS-HPV cleavage (conversion into HPV), β(S)-stereoisomer; type: biochemical
# Description: Kinetics analysis of GS-HPV cleavage. The Reaction Buffer (RB) consisted of 25 mM Tris-HCl (pH 8.5) and 25 mM NaCl. The β(R)- and β(S)-stereoisomers of GS-HPV were separately generated by incubating racemic MPHPV (0.46 mM) in RB with 5 mM reduced glutathione (GSH) and either 38 μg/mL LigF1 or 36 μg/mL LigE, respectively, for several h. This sample, containing a single GS-HPV stereoisomer, guaiacol, and the unreacted MPHPV stereoisomer, was diluted with RB to achieve the desired concentration of GS-HPV for the time course reaction (0.005, 0.011, 0.022, 0.096, or 0.193 mM). An additional 5 mM GSH (dissolved in RB) was added prior to initiation of each time course. […] Assays were performed at 25° C., and at specified time points, 300 μL of the reaction was removed and combined with 100 μL 1 M HCl (Acros Organics; Geel, Belgium) to stop the reaction before HPLC analysis to quantify HPV formed.
# HPLC analysis. After extracellular aromatics were identified using LC-MS, routine analysis and quantification of aromatics were performed using an Ultra AQ C18 5 μm column (Restek, Bellefonte, Pa.) attached to a System Gold HPLC (Beckman Coulter, Brea, Calif.) with running buffers and chromatography conditions described in FIG. 14. […]
# [6] = Kinetics of the enzymatic cleavage of β(R)-MPHPV into GS-HPV; type: biochemical
# Description: Kinetics of the enzymatic cleavage of β(R)-MPHPV. Various concentrations of racemic MPHPV (equal amounts of the β(S)- and β(R)-stereoisomers) were combined with 5 mM GSH in RB. At time zero, 100 μL of a given enzyme in RB+5 mM GSH was combined with 1000 μL of the racemic MPHPV/GSH sample at 25° C. (both samples were equilibrated to 25° C. before mixing). Final concentrations of β(R)-MPHPV in each reaction were 0.0045, 0.010, 0.017, 0.068, or 0.13 mM. Final enzyme concentrations were 18 nM BaeA, 23 nM BaeA (2:S14A), 22 nM BaeA (3:S15A), 24 nM BaeA (2:S14A/3:S15A), 98 nM BaeA (3N14A), or 70 nM LigE (Saro_2405) (all concentrations are for the dimeric enzyme, except for LigE, which is the concentration of the monomer). At specified time points, 200 μL of a reaction was removed and combined with 40 μL of 1 M HCl (Acros Organics) to stop the reaction before HPLC analysis to quantify GS-HPV formed. Control experiments were allowed to proceed for several hours to ensure that only the β(R)-MPHPV in the reaction mixtures was being reacted with in these experiments.
# as §2
molecule,measurement,setting,value
B1,Km,[1],7 ± 1 µM
same,kcat,[1],0.68 ± 0.06 s⁻¹
same,kcat/Km,[1],100000 ± 20000 M⁻¹ s⁻¹
B2,Km,[2],20 ± 3 µM
same,kcat,[2],2.9 ± 0.3 s⁻¹
same,kcat/Km,[2],150000 ± 30000 M⁻¹ s⁻¹
B3,Km,[3],22 ± 3 µM
same,kcat,[3],2.8 ± 0.2 s⁻¹
same,kcat/Km,[3],130000 ± 20000 M⁻¹ s⁻¹
B4,Km,[4],100 ± 20 µM
same,kcat,[4],2.4 ± 0.3 s⁻¹
same,kcat/Km,[4],23000 ± 6000 M⁻¹ s⁻¹
B5,"kcat/KM with the β(S)-isomer, fold higher than with the β(R)-isomer",[5],~10 fold
B6,"KM, fold higher than wild-type BaeA",[6]; β(R)-MPHPV,~12.5 fold
same,"kcat, fold lower than (wild-type) BaeA",[6]; β(R)-MPHPV,~20 fold
B7,activity of the Saro_2872 subunit in BaeA relative to the Saro_2873 subunit,[6]; inferred from the 3:N14A variant,< 5%

# — patent US11447754B2, “In vitro methods of chemical conversion using non-stereospecific glutathione lyases” (WISCONSIN ALUMNI RESEARCH FOUNDATION, priority 2017, dated 2022)
